Source: publication PMC8990738

Biological target: depolymerase Dpo71 (Acinetobacter baumannii phage vB_AbaM-IME-AB2)
Test: SEC; Superose 6 Increase column on AKTA FPLC, equilibrated with PBS; gel filtration markers of 150 and 200 kDa; purified Dpo71 alone

stoichiometry N: 3
Substance: depolymerase Dpo71 (enzyme)
